Assay results as given in paper PMC11926874, “Patulin Detoxification by Evolutionarily Divergent Reductases of Gluconobacter oxydans ATCC 621” (Journal of Agricultural and Food Chemistry, 2025).

T1: GOX1462 (Gluconobacter oxydans, UniProt Q5FQY5)
T1 construct: recombinant N-terminal His-tagged protein
T1 sequence (Q5FQY5 1-359): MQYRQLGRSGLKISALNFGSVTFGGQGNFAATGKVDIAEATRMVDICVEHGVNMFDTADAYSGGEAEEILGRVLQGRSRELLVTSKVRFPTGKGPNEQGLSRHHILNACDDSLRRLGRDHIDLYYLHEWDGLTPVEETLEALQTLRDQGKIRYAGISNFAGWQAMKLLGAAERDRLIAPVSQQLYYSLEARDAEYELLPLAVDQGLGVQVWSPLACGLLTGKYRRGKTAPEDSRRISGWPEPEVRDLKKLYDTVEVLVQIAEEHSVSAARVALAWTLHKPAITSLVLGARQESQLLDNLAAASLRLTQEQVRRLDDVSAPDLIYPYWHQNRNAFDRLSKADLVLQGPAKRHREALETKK

T2: GOX0716 (Gluconobacter oxydans, UniProt Q5FT03)
T2 construct: recombinant N-terminal His-tagged protein
T2 sequence (Q5FT03 1-257): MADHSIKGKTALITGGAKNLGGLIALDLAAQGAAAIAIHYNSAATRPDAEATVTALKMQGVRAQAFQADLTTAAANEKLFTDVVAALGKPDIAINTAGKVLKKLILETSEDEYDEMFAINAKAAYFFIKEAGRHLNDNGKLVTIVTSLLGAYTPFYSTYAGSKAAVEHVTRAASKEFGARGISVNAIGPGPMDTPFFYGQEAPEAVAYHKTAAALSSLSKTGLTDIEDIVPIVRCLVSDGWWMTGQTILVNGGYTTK

B1: GOX0716 (Gluconobacter oxydans 621H) (protein)
chain: T2 sequence (Q5FT03 1-257)
notes: recombinant N-terminal His-tagged protein
B2: GOX1462 (Gluconobacter oxydans 621H) (protein)
chain: T1 sequence (Q5FQY5 1-359)
notes: as for B1

Tests used:
GOX1462 = molecular target: T1, GOX1462; assay: tryptophan fluorescence quenching; assay type: binding
GOX0716 = molecular target: T2, GOX0716; assay: tryptophan fluorescence quenching; assay type: binding
purified protein [1] = substrate: O=C1C(=O)c2ccccc2-c2ccccc21; assay: purified protein; assay type: biochemical, Gluconobacter oxydans; details: NADPH
purified protein [2] = substrate: O=C1C=C2C(=CCOC2O)O1; assay: purified protein; assay type: biochemical, Gluconobacter oxydans
purified protein [3] = substrate: O=C1Nc2ccccc2C1=O; assay: purified protein; assay type: biochemical, Gluconobacter oxydans; details: NADPH
purified protein [4] = substrate: O=Cc1ccco1; assay: purified protein; assay type: biochemical, Gluconobacter oxydans; details: NADPH
[5] = substrate: CCC=O; assay: purified protein, by the assay type; parameters: steady-state Michaelis-Menten kinetics of carbonyl substrate reduction, NADPH consumption at 340 nm, 25 °C; details: 25.0 °C
Procedure: (§1) For substrate specificity, kinetic measurements were performed at 25 °C in triplicate in 100 mM potassium phosphate buffer, pH 6.0 (for GOX0716) or pH 7.0 (for GOX1462). Substrate utilization was monitored by the decrease in the level of NADPH at 340 nm using a BioTek Epoch 2 microplate reader. Reactions were conducted in a total volume of 200 μL. The molar extinction coefficient of NADPH was determined by constructing a linear regression standard line using NADPH standards of known concentrations. One unit (1 U) of enzyme activity is defined as the amount of enzyme required to oxidize 1 μmol NADPH per minute. Stock solutions of substrates were prepared in dimethyl sulfoxide (DMSO). All kinetic data fitting was performed using nonlinear regression with GraphPad Prism, version 8. All data were fitted to the Michaelis–Menten equation. The kinetic parameters for each enzyme were determined at their respective pH optimum.

[6] = substrate: CCCC=O; assay: purified protein, by the assay type; parameters: steady-state Michaelis-Menten kinetics of carbonyl substrate reduction, NADPH consumption at 340 nm, 25 °C; details: 25.0 °C
Procedure: as §1

[7] = substrate: CCCCCC=O; assay: purified protein, by the assay type; parameters: steady-state Michaelis-Menten kinetics of carbonyl substrate reduction, NADPH consumption at 340 nm, 25 °C; details: 25.0 °C
Procedure: as §1

[8] = substrate: CCCCCCC=O; assay: purified protein, by the assay type; parameters: steady-state Michaelis-Menten kinetics of carbonyl substrate reduction, NADPH consumption at 340 nm, 25 °C; details: 25.0 °C
Procedure: as §1

[9] = substrate: O=CCO; assay: purified protein, by the assay type; parameters: steady-state Michaelis-Menten kinetics of carbonyl substrate reduction, NADPH consumption at 340 nm, 25 °C; details: 25.0 °C
Procedure: as §1

purified protein [10] = substrate: CCCC=O; assay: purified protein; assay type: biochemical, Gluconobacter oxydans; details: NADPH
[11] = substrate: CC(=O)C=O; assay: purified protein, by the assay type; parameters: steady-state Michaelis-Menten kinetics of carbonyl substrate reduction, NADPH consumption at 340 nm, 25 °C; details: 25.0 °C
Procedure: as §1

[12] = substrate: O=CC(O)CO; assay: purified protein, by the assay type; parameters: steady-state Michaelis-Menten kinetics of carbonyl substrate reduction, NADPH consumption at 340 nm, 25 °C; details: 25.0 °C
Procedure: as §1

[13] = substrate: O=Cc1ccccc1; assay: purified protein, by the assay type; parameters: steady-state Michaelis-Menten kinetics of carbonyl substrate reduction, NADPH consumption at 340 nm, 25 °C; details: 25.0 °C
Procedure: as §1

[14] = NADPH docked as the ring-opened aldehyde form: hydrogen bonds with catalytic Tyr159 and Thr146, Tyr156, Glu201, Pro191, Pro189
[15] = NADPH docked as the ring-opened aldehyde form: hydrogen bonds with catalytic Tyr61, Ser157 and Asn158

Molecule	Km (purified protein [1]) [µM]	kcat (purified protein [1]) [s⁻¹]	kcat/Km (purified protein [1]) [M⁻¹ s⁻¹]	Km (purified protein [3]) [µM]	kcat (purified protein [3]) [s⁻¹]	kcat/Km (purified protein [3]) [M⁻¹ s⁻¹]	Km [5] [µM]	kcat [5] [s⁻¹]	kcat/Km [5] [M⁻¹ s⁻¹]	Km [7] [µM]	kcat [7] [s⁻¹]	kcat/Km [7] [M⁻¹ s⁻¹]	Km [8] [µM]	kcat [8] [s⁻¹]	kcat/Km [8] [M⁻¹ s⁻¹]	also measured
NC(=O)C1=CN([C@@H]2O[C@H](COP(=O)(O)OP(=O)(O)OC[C@H]3O[C@@H](n4cnc5c(N)ncnc54)[C@H](OP(=O)(O)O)[C@@H]3O)[C@@H](O)[C@H]2O)C=CC1 [NADPH]																Kd (GOX1462): 30.3 ± 3.56 µM; Kd (GOX0716): 20.5 ± 2.86 µM
B1	46.9 ± 8.17	3.14 ± 0.181	67000 ± 12300	282 ± 40.3	0.127 ± 0.00588	450 ± 67.6	417 ± 52.1	0.0442 ± 0.00201	106 ± 14.1	509 ± 71.7	0.00946 ± 0.000516	18.6 ± 2.81	637 ± 72.8	0.0402 ± 0.00191	63.1 ± 7.81	Km (purified protein [2]; [14]): 1300 ± 213 µM; kcat (purified protein [2]; [14]): 0.0468 ± 0.00402 s⁻¹; kcat/Km (purified protein [2]; [14]): 36 ± 6.66 M⁻¹ s⁻¹; Km (purified protein [4]): 94.8 ± 8.91 µM; kcat (purified protein [4]): 0.0103 ± 0.000223 s⁻¹; kcat/Km (purified protein [4]): 109 ± 0.0964 M⁻¹ s⁻¹; Km [6]: 351 ± 40.4 µM; kcat [6]: 0.0339 ± 0.00135 s⁻¹; kcat/Km [6]: 96.6 ± 11.8 M⁻¹ s⁻¹; Km [9]: 607 ± 110 µM; kcat [9]: 0.00643 ± 0.000459 s⁻¹; kcat/Km [9]: 10.6 ± 2.06 M⁻¹ s⁻¹
B2	31.9 ± 4.85	5.79 ± 0.234	182000 ± 28600	107 ± 17.1	0.163 ± 0.00536	1520 ± 248	164 ± 13.7	0.0228 ± 0.000523	139 ± 12	513 ± 141	0.0251 ± 0.00251	48.9 ± 14.3	178 ± 15.6	0.027 ± 0.000671	152 ± 13.8	Km (purified protein [10]): 139 ± 14.4 µM; kcat (purified protein [10]): 0.0241 ± 0.000654 s⁻¹; kcat/Km (purified protein [10]): 173 ± 18.5 M⁻¹ s⁻¹; Km (purified protein [2]; [15]): 178 ± 25.4 µM; kcat (purified protein [2]; [15]): 0.0389 ± 0.00145 s⁻¹; kcat/Km (purified protein [2]; [15]): 219 ± 32.3 M⁻¹ s⁻¹; Km [11]: 1990 ± 238 µM; kcat [11]: 0.221 ± 0.0159 s⁻¹; kcat/Km [11]: 111 ± 15.5 M⁻¹ s⁻¹; Km [12]: 483 ± 85.9 µM; kcat [12]: 0.0181 ± 0.00121 s⁻¹; kcat/Km [12]: 37.5 ± 7.12 M⁻¹ s⁻¹; Km [13]: 258 ± 37.7 µM; kcat [13]: 0.0184 ± 0.000807 s⁻¹; kcat/Km [13]: 71.3 ± 10.9 M⁻¹ s⁻¹
